How the values were obtained:
human c-Met ECD (human) = human c-Met ECD (human) (UniProt P08581); test: SPR (Biacore T100), antibody captured by anti-Fc gamma, c-Met ECD in solution, 25 C
[1] = target: c-Met receptor on OVCAR-8 cells (human) (UniProt P08581); test: cell-based or functional assay

Kd (human c-Met ECD (human)): 5.5 nM | % Internalization of c-Met after 2 h on OVCAR-8 cells (=100-% antibody on cell surface) [1]: -14% | % c-Met receptor on OVCAR-8 cell surface measured after 2 h [1]: 114%
Substance: BsAB01, trivalent bispecific <ErbB1-c-Met> antibody (full length cetuximab with one c-Met 5D5 single chain Fab fragment at the C-terminus of the knob heavy chain) (bispecific antibody)

— patent US20100254989A1
